Measurements from publication PMC12316982 (Nature Communications, 2025).
Substitutions are numbered along the chain they refer to.

Molecular target: stabilized neuraminidase protein (sNAp) of A/Vietnam/1203/2004 (VN04, H5N1) (Influenza A virus A/Vietnam/1203/2004 …, UniProt Q6DPL2, stabilised)
Assay: ELISA
Details: both partners purified

B1: NCS.1.3 (human IgG1) (antibody, V domains shown)
VH: QVQLQESGPRLVKPSETLSLTCSVSGESISSGGYYWTWIRQHPGKGLEWIGNIFDTGSTDYSPSLKTRLTISIDTSKNQFYLRLTSATAADTAVYYCARVGFSLETDRPYYLGLDVWGQGTTVTVSS
VL: DIVMTQSPLTLPVTPGEPASISCRSSQSLLHSNGYTYLDWYLQKPGQSPQLLIYFASNRASGVPDRFSGSGSGTYFTLKISRVEAEDVGVYYCMQAVQSPWTFGQGTKVEIK
B1: binds.

B2: NCS.1.1 (human IgG1) (antibody, V domains shown)
VH: B1 VH with T85N
VL: B1 VL with T10S, Y54S, A56T, S99T
B2: binds.

B3: NCS.1 (human IgG1) (antibody, V domains shown)
VH: B1 VH with Q5P, D60H, T85N, F102Y, L112F
VL: B1 VL with T10S, F55L, S99T
B3: binds.
